Assay: yeast display, Sf9 membrane polyspecificity reagent, FACS + sequencing; frameworks hold sequencing errors
Summary of the method: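 Sorting gates, low and high (top ~1%), were placed on anti-HA fluorescence to track expression and on streptavidin fluorescence to track reagent binding. A clone's polyreactivity label is taken from the gate it came out of. The reagent was 10% biotinylated, detergent-solubilized Sf9 membrane, applied for 1 hour at 4 °C to galactose-induced yeast display cells.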

| Sequence | polyreactivity (PSR sort gate) |
| --- | --- |
| QVQLVESGGGLVQAGGSLRLSCAASGIPRNTMGWYRQAPGKETELVASISTSGGSTYYADSVKGRFTISRDNAKNTVYLQMNSLKPEDTAVYYCAKKGYASRYFIYDYWGQGTQVTVSS | low polyreactivity |
| QVQLVESGGGLVQAGGSLRFSCADSGSIFRYAMGWYRQAPGKERELVAGMSASGGRTYYADSVKGRFTISRDNAKNTVYLQMNSLKPEDTAVYYCNAVTREYQRPPVPRSYLYDYWGQGTQVTVSS | high polyreactivity |
| QVQLVESGGGLVQAGGSLRLSCAASGRIFDVNAMGWYRQAPGKERELVAAINKSGGTTYYADSVKGRFTISRDNAKNTVYLQMYSLKPEDTAVYYCAADSYSSRYDYWGQGTQVTVSS | high polyreactivity |
| QVQLVESGGGLVQAGGSLRLSCAASGSTFDSYAMGWYRQAPGKERELVASITSNDGSTSYADSVKGRFTISRDNAKNTVYLQMNSLKPEDTAVYYCATTFQYYWFSLYDYWGQGTQVTVSS | low polyreactivity |
| QVQLVESGGGLVQAGGSLRLSCAASGRIFKYYVMGWYRQAPGKERELVATISSGSGTNYADSVKGRFTISRDNAKNTVYLQMNSLKPEDTAVYYCAARWTPRVRGYNYWGQGTLVTVSS | high polyreactivity |
| QVQLVESGGGLVQAGGSLRLSCAASGSIFTHNDMGWYRQAPGQERELVAAISSGGSTNYADSVTGRFTISRDNAKNTVYLQMNSLIPVETAVYYCAKSIDGWYWRRRRYDYWGQGTQVTVSS | low polyreactivity |
| QVQLVESGGGLVQAGGSLRLTCAPSGSTLLVYAMGWNRQAPGKERELVAAISGSGGRTSYADSVKGRFTISRDNAKNTVYLQMNSLKPEDTAVYYCAARRAGTYDYWGEGTQVTVSS | high polyreactivity |
| QVQLVESGGGLVQAGGSLRLSCAASGSTFPGNAMGWYRQAPGKERELVAAINWSGDSTYYADSVKGRFTISRDNAKNTVYLQMNSLKPEDTAVYYCAAYGDGYYYWGQGTQVTVSS | low polyreactivity |
| QVKLVESGGGLVQAGGSLRLSCAASGRIFYYNAMGWYRQAPGKERELVSAIRVRGGSTYYADSVKGRFTISRDNAKNTVYLQMNSLNPEDTAVYYCNSSDYKISATNAVVRYYYWGQGTQVTVSS | high polyreactivity |
| QVQLVESGGGLVQAGGSLRLSCAASGYTFGYNAMGWYRQAPGKERELVANITWRGGSTNYADSVKGRFTISRDNAKNTVYLQMNSLKPEDTAVYYCAADRPWYYGRYYYWGQGTQVTVSS | high polyreactivity |
| QVQLVESGGGLVQAGGSLRLSCAASGSISIFYMGWYRQAPGKERELVAAISWSGGRTYYADSVKGRFTISRDNAKNTVYLQMNSLKREDTAVYYCAASRSFPGYGLYYYWGQGTQVTVSS | low polyreactivity |
| QVQLVESGGGLVQAGGSLRLSCAASGRIFTYNAMGWYIQAPGKERELVAAISSSVGSTYYADSVKGRFTISRDNAKNTVYLQMNSLKPEDTAVYYCAAYSYRNLRFYYWGQGTQVTVSS | high polyreactivity |
| QVQLVESGGGLVQAGGSLRLSCAASGHIFVNKAMGWYRQAPGKEREFVAAITSNGARTYYADSVKGRFTISRDNAKNTVYLQMNSLKPEDTAVYYCAKRFARRSQRYDYWGQGTQVTVSS | high polyreactivity |
| QVQLVESGGGLVQAGGSLRLSCAASGGTFTWYAMGWYRQAPGKERELVAAISSDGSTYYADSVKGRFTISRDNAKNTVYLQMNSLKPEDTAVYYSAAYSSWGGFDYWGQGTQVTVSS | low polyreactivity |
| QVQLVESGGGLVQAGGSLRLSCAASGGIFDSYALGWYRQAPGKERELVADITSGGSTNYADSVKGRFTISRDNAKNTVYLQMNSLKPEDTAVYYCARTVYGARSYDYWGQGTQVTVSS | low polyreactivity |
| QVQLVESGGGLVQAGGSLRLSCAASGSTFPRYAMGWYRQAPGKERELVASITSDGGSTYYADSVKGRFTISRDNAMNTVYLQLNSLKPEDTAVYYCNKVTYRGYRRYGYWGQGTQVTVSS | high polyreactivity |
| QVQLVESGGGLVQAGGSLRLSCAASGFIFYAYDMGWYRQAPGKERELVAAISRVGSTYYADSVKGRFTISRDNAKNTVYLQMNSLKPEDTAVYYCATKFGTTRGFGYWGQGTQVTVSS | high polyreactivity |
| QFQLVESGGGLVQAGGSLRLRCAATGSNFYVYALGWYRQAPGKETELVAAIRRTGSSTYYADSVKGRFTMSRDNAKNTDYLQMNSLKPEDTAVYYCAARYWRARAGSYDYWGQGTQVTVSS | high polyreactivity |
| QVQLVESGGGLVQAGGRLRLSCAASGITFLNYAMGWYRPAPRKERELVAAISWSGGRTYYADSVKGRFTISRDNAKNTVFLQMNSLKPEDNAVYYCAADRGVNSYGYWGQGTQVTVSS | high polyreactivity |
| QVQLVESGGGLVQAGGSLRLSCAASGRTFRSYTMGWYRQAPGKERELVAAIRTSSGSTYYADSVKGRFTISRDNAKNTVYLQMNSLKPEDTAVYYCAKTLLYPWFRTVAVDYWGQGTQVTVSS | low polyreactivity |
| QVQLVESGGGLVQAGGSLRLSCAASGTFYRNAMGWYRQAPGKERELVAAISSGSNTDYADSVKGRFTISRDNAKNTVYVQMNSLKPEDTALYYCNADRGDLYDLRGSGYLDGYWGQGTQVTVSS | low polyreactivity |
| QVQLVESGGGLVQAGGSLRLSCAASGSTLSDYVMGWYRQAPGKERELVAAITSGGSTSYADSVKGRFTISRDNAKNTVYLQMNSLKPEDTAVYYCNATLLFPLLYGPESGEFDYWGQGTQVTVSS | low polyreactivity |

Source: the nanobody polyreactivity screen of Harvey et al. (2022)
